The text below walks through data of patent publication US20230220084A1 (DRAGONFLY THERAPEUTICS, published 2023).

Experiment [1] concerns the target T1, cCLEC12A-His (cynomolgus monkey, UniProt A0A2K5WXQ4 71-271).
T1 construct: Recombinant His-tagged cynomolgus CLEC12A; also called Cyno CLEC12A-His; recombinant cyno CLEC12A
T1 sequence: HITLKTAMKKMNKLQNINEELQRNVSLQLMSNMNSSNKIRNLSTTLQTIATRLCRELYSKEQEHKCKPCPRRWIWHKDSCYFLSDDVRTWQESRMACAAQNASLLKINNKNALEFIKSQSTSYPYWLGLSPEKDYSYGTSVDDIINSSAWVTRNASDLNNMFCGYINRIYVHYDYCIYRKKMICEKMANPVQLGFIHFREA
The experiment can be described thus: SPR, purified murine mAb. (In general: Surface plasmon resonance follows binding to a sensor surface in real time, without labels.)

Experiment [2] deals with T2, hCLEC12A-His fusion protein (human, UniProt Q5QGZ9 65-265, limits assumed).
T2 construct: Recombinant His-tagged human CLEC12A; also called Human CLEC12A-His; recombinant human CLEC12A
T2 sequence (looked up): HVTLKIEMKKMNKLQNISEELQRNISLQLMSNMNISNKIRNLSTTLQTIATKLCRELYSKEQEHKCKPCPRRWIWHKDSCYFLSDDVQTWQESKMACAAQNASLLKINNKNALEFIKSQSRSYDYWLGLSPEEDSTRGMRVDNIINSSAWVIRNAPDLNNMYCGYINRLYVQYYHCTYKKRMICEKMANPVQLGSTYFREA
The experiment in a line: SPR, purified murine mAb.

In experiment [3] the target is T2, hCLEC12A-His fusion protein. The experiment in a line: SPR, purified murine mAb, Human CLEC12A-His.
Experiment [4] shares this target. The experiment in a line: SPR, analyte glycosylated hCLEC12A.
In experiment [5] the target is T3, De-sialylated hCLEC12A (human, UniProt Q5QGZ9 65-265, limits assumed, glycans de-sialylated).
T3 construct: Same protein as m1 after removal of sialic acid; also called de-sialylated version of hCLEC12A
T3 sequence (looked up): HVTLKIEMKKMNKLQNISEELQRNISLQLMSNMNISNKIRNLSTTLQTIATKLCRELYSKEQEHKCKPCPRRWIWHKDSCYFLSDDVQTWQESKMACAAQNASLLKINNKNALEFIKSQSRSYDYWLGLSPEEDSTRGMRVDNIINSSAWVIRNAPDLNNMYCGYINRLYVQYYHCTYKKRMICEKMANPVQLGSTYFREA
The experiment in a line: SPR, analyte de-sialylated hCLEC12A.

Experiment [6] addresses T4, human CLEC12A expressed on cells (human, UniProt Q5QGZ9 1-265).
T4 construct: whole, on cells; also called RMA-hCLEC12A; hCLEC12A+Ba/F3
T4 sequence (looked up): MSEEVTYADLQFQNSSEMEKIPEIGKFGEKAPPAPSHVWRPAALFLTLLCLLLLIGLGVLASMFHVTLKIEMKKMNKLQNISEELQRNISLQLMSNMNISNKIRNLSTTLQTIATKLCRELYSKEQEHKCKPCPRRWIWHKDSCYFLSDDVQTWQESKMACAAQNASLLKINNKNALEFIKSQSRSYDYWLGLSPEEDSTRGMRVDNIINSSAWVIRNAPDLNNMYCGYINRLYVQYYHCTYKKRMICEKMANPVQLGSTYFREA
The experiment in a line: flow cytometry, PL21 cells. A general note: In flow cytometry, cells or beads pass a laser one at a time.

For experiment [7], the target named is T1, cCLEC12A-His. The experiment can be described thus: SPR, purified murine mAb, Cyno CLEC12A-His.
The target of experiment [8] is T2, hCLEC12A-His fusion protein. The experiment in a line: SPR screening, fully purified murine mAb.
Experiment [9] addresses T5, De-glycosylated hCLEC12A (human, UniProt Q5QGZ9 65-265, limits assumed, N-glycans removed with PNGase).
T5 construct: Same protein as m1 after PNGase treatment; also called PNGase-treated hCLEC12A; deglycosylated version of hCLEC12A
T5 sequence (looked up): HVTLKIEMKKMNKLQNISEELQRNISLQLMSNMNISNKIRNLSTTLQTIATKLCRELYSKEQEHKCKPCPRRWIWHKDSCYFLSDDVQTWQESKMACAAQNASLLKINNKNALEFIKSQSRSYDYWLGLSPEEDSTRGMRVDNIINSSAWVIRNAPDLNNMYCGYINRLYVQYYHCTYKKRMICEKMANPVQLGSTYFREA
The experiment can be described thus: SPR, analyte de-glycosylated hCLEC12A.

The target of experiment [10] is T2, hCLEC12A-His fusion protein. The experiment can be described thus: SPR screening.
For experiment [11] the target is unchanged. The experiment can be described thus: yeast display flow cytometry with hCLEC12A-his (PE-A against FITC-A).
Experiment [12] has the same target. The experiment in a line: SPR 37 C, two-state fit; overall KD of two-state fit, 37 C.
Experiment [13] shares this target. The experiment in a line: SPR 37 C, two-state fit, kd2.
The target is the same in experiment [14]. The experiment in a line: SPR 37 C, two-state fit, kd1; kd1 of two-state fit, 37 C.
For experiment [15] the target is unchanged. The experiment can be described thus: SPR 37 C, two-state fit, ka1; ka1 of two-state fit, 37 C.
Experiment [16] has the same target. The experiment can be described thus: yeast display, flow cytometry.

B1: 15A10.G8 (antibody, V domains shown)
VH: EVQLQESGAELVRSGASIKLSCAASAFNIKDYFIHWVRQRPDQGLEWIGWIDPENDDTEYAPKFQDKATMTADTSSNTAYLQLSSLTSADTAVYYCNALWSRGGYFDYWGQGTTLTVSS
VL: EVLLTQSPAIIAASPGEKVTITCSARSSVSYMSWYQQKPGSSPKIWIYGISKLASGVPARFSGSGSGTYFSFTINNLEAEDVATYYCQQRSYYPFTFGSGTKLEIK
notes: Murine mAb purified from the hybridoma subclone
In experiment [1], B1 showed a dissociation constant Kd of 3.3 nM, a koff of 0.000659 s⁻¹ and a kon of 196000 M⁻¹ s⁻¹. In addition, in [2], binding was characterised by a dissociation constant (Kd) of 1.6 nM, the koff came out at 0.000494 s⁻¹ and the kon was 301000 M⁻¹ s⁻¹.

B2: 13E1.A4 (antibody, V domains shown)
VH: EVQLQESGPELEKPGASVRISCKASGYSFTAYNMNWVKQSNGKSLEWIGNIDPSYGDATYNQKFKGKATLTVDKSSSTAYMQLKSLTSEDSAVYYCARDNYYGSGYFDYWGQGTTLTVSS
VL: SVLMTQTPLSLPVSLGDRASISCRSSQGIVHINGNTYLEWYLQKPGQSPKLLIYKVSNRFSGVPDRFSGSGSGTDFTLKISRVEAEDLGVYYCFQGSHVPWTFGGGTKLEIK
notes: as for B1
For the molecule B2, the binding result in [3] was “binds”.

B3: 16B8.C8 (antibody, V domains shown)
VH: EVQLQESGPGLVQPSQSLSITCTVSGFSLTNYGLHWVRQSPGKGLEWLGVIWSGGKTDYNTPFKSRLSISKDISKNQVFFKMNSLQPNDTAIYFCAKYDYDDSLDYWGQGTSVTVSS
VL: DIQMNQSPSSLSASLGDTIAITCHASQNINFWLSWYQQKPGNIPKLLIYEASNLHTGVPSRFSGSGSGTRFTLTISSLQPEDIATYYCQQSHSYPLTFGQGTKLEIK
notes: Murine mAb purified from the hybridoma subclone; also called Murine 16B8 mAb; Murine 16B8. mAb
Take B3: the Kd turned out to be 0.01 nM in [2]; 0.012 nM in [4]; 0.007 nM in [5]; 0.008 nM in experiment [8]; 0.011 nM in experiment [9]. Moreover, the koff in [2] was determined as 4.44e-05 s⁻¹; in [4], 4.7e-05 s⁻¹; in experiment [5] it was 3.62e-05 s⁻¹; in [8], 2.35e-05 s⁻¹; in experiment [9] it was 4.45e-05 s⁻¹. The kon worked out at 4.05e+06 M⁻¹ s⁻¹ in [2]; 4.05e+06 M⁻¹ s⁻¹ in [4]; 5.25e+06 M⁻¹ s⁻¹ in experiment [5]; 3.03e+06 M⁻¹ s⁻¹ in experiment [8]; 4.26e+06 M⁻¹ s⁻¹ in [9]. The same molecule returned an EC50 in experiment [6] of 0.18 nM. Moreover, in experiment [6], the “Max MFI” value was 300 MFI. Besides, the binding result in [7] is recorded as “no binding”.

B4: m9F11-hIgG1 (antibody, V domains shown)
VH: EVQLQESGGGLVQPGGSRKLSCAASGFTFNSFGMHWVRQAPEKGLEWVAFISSGSTSIYYANTVKGRFTISRDNPKNTLFLQMTSLRSEDTAMYYCARDGYPTGGAMDYWGQGTSVTVSS
VL: DIKMTQSPSSMYASLGERVTITCKASQDIYNYLSWFQLKPGKSPRPLIYRANILVSGVPSKFSGSGSGQDYSLTINSLEYEDLGIYYCLQFDAFPFTFGSGTKLEIK
notes: also called chimeric parent mouse 9F11.B7 mAb
In experiment [10], B4 registered a Kd of 1.07 nM, a dissociation rate constant (koff) of 0.00102 s⁻¹ and an on-rate (kon) of 950000 M⁻¹ s⁻¹.

B5: parent scFv (YDYDDSLDY) (SEQ ID NO:5) of F3′-1602, yeast display (scFv)
scFv: QLQLQESGPGLVKPSETLSLTCTVSGFSLTNYGLHWIRQPPGKCLEWIGVIWSGGKTDYNPSLKSRVTISKDTSKNQFSLKLSSVQAADTAVYYCAKYDYDDSLDYWGQGTLVTVSSGGGGSGGGGSGGGGSGGGGSDIQMTQSPSSLSASVGDRVTITCHASQNINFWLSWYQQKPGKAPKLLIYEASNLHTGVPSRFSGSGSGTRFTLTISSLQPEDIATYYCQQSHSYPLTFGCGTKLEIK
For B5, the binding result in experiment [11] is “binds”.

B6: AB0053 (bispecific antibody)
chain: QLQLQESGPGLVKPSETLSLTCTVSGFSLTNYGLHWIRQPPGKCLEWIGVIWSGGKTDYNPSLKSRVTISKDTSKNQFSLKLSSVQAADTAVYYCAKYDYDDALDYWGQGTLVTVSSGGGGSGGGGSGGGGSGGGGSDIQMTQSPSSLSASVGDRVTITCHASQNINFWLSWYQQKPGKAPKLLIYEASNLHTGVPSRFSGSGSGTRFTLTISSLQPEDIATYYCQQSHSYPLTFGCGTKLEIK
Turning to B6, in experiment [12], the Kd worked out at 2.41 nM. Besides, the off-rate (koff) in [13] was 0.000949 s⁻¹; in experiment [14] it was 0.0157 s⁻¹. The kon in experiment [15] was determined as 1.63e+06 M⁻¹ s⁻¹.

B7: scFv CDRH3 variant YDYDDLLDY (SEQ ID NO:143), yeast display (scFv)
scFv: QLQLQESGPGLVKPSETLSLTCTVSGFSLTNYGLHWIRQPPGKCLEWIGVIWSGGKTDYNPSLKSRVTISKDTSKNQFSLKLSSVQAADTAVYYCAKYDYDDLLDYWGQGTLVTVSSGGGGSGGGGSGGGGSGGGGSDIQMTQSPSSLSASVGDRVTITCHASQNINFWLSWYQQKPGKAPKLLIYEASNLHTGVPSRFSGSGSGTRFTLTISSLQPEDIATYYCQQSHSYPLTFGCGTKLEIK
notes: As m72
In the case of B7, the binding result in experiment [16] is “binds”.

B8: scFv CDRH3 variant YDYDDALDY (SEQ ID NO:141), yeast display (scFv)
scFv: QLQLQESGPGLVKPSETLSLTCTVSGFSLTNYGLHWIRQPPGKCLEWIGVIWSGGKTDYNPSLKSRVTISKDTSKNQFSLKLSSVQAADTAVYYCAKYDYDDALDYWGQGTLVTVSSGGGGSGGGGSGGGGSGGGGSDIQMTQSPSSLSASVGDRVTITCHASQNINFWLSWYQQKPGKAPKLLIYEASNLHTGVPSRFSGSGSGTRFTLTISSLQPEDIATYYCQQSHSYPLTFGCGTKLEIK
On to B8, for which the binding result in experiment [16] is given as “binds”.

B9: scFv CDRH3 variant YDYDDILDY (SEQ ID NO:142), yeast display (scFv)
scFv: QLQLQESGPGLVKPSETLSLTCTVSGFSLTNYGLHWIRQPPGKCLEWIGVIWSGGKTDYNPSLKSRVTISKDTSKNQFSLKLSSVQAADTAVYYCAKYDYDDILDYWGQGTLVTVSSGGGGSGGGGSGGGGSGGGGSDIQMTQSPSSLSASVGDRVTITCHASQNINFWLSWYQQKPGKAPKLLIYEASNLHTGVPSRFSGSGSGTRFTLTISSLQPEDIATYYCQQSHSYPLTFGCGTKLEIK
notes: As m72
In the case of B9, the binding result in [16] is listed as “binds”.

For orientation: Kd means the free concentration of one partner at which half of the binding sites on the other are occupied at equilibrium, for simple one-to-one binding. Low readings indicate a tighter complex, high ones a looser complex. One may read the koff as a measure of how fast the partners let go of each other. The low end stands for slow dissociation, the high end for fast dissociation. A word on the kon: it is the rate constant with which the complex forms. One may read the EC50 as the midpoint of the concentration-response curve. Low values mean an effect from little substance, high ones a need for much substance.
